{"source": "IntAct's records for PubMed 27189942", "parents": {"B1": {"name": "Rabankyrin-5 (Homo sapiens), Q9P2R3 (parent)", "chain": "MAEEEVAKLEKHLMLLRQEYVKLQKKLAETEKRCALLAAQANKESSSESFISRLLAIVADLYEQEQYSDLKIKVGDRHISAHKFVLAARSDSWSLANLSSTKELDLSDANPEVTMTMLRWIYTDELEFREDDVFLTELMKLANRFQLQLLRERCEKGVMSLVNVRNCIRFYQTAEELNASTLMNYCAEIIASHWDDLRKEDFSSMSAQLLYKMIKSKTEYPLHKAIKVEREDVVFLYLIEMDSQLPGKLNEADHNGDLALDLALSRRLESIATTLVSHKADVDMVDKSGWSLLHKGIQRGDLFAATFLIKNGAFVNAATLGAQETPLHLVALYSSKKHSADVMSEMAQIAEALLQAGANPNMQDSKGRTPLHVSIMAGNEYVFSQLLQCKQLDLELKDHEGSTALWLAVQHITVSSDQSVNPFEDVPVVNGTSFDENSFAARLIQRGSHTDAPDTATGNCLLQRAAGAGNEAAALFLATNGAHVNHRNKWGETPLHTACRHGLANLTAELLQQGANPNLQTEEALPLPKEAASLTSLADSVHLQTPLHMAIAYNHPDVVSVILEQKANALHATNNLQIIPDFSLKDSRDQTVLGLALWTGMHTIAAQLLGSGAAINDTMSDGQTLLHMAIQRQDSKSALFLLEHQADINVRTQDGETALQLAIRNQLPLVVDAICTRGADMSVPDEKGNPPLWLALANNLEDIASTLVRHGCDATCWGPGPGGCLQTLLHRAIDENNEPTACFLIRSGCDVNSPRQPGANGEGEEEARDGQTPLHLAASWGLEETVQCLLEFGANVNAQDAEGRTPIHVAISSQHGVIIQLLVSHPDIHLNVRDRQGLTPFACAMTFKNNKSAEAILKRESGAAEQVDNKGRNFLHVAVQNSDIESVLFLISVHANVNSRVQDASKLTPLHLAVQAGSEIIVRNLLLAGAKVNELTKHRQTALHLAAQQDLPTICSVLLENGVDFAAVDENGNNALHLAVMHGRLNNIRVLLTECTVDAEAFNLRGQSPLHILGQYGKENAAAIFDLFLECMPGYPLDKPDADGSTVLLLAYMKGNANLCRAIVRSGARLGVNNNQGVNIFNYQVATKQLLFRLLDMLSKEPPWCDGSYCYECTARFGVTTRKHHCRHCGRLLCHKCSTKEIPIIKFDLNKPVRVCNICFDVLTLGGVS", "partner": "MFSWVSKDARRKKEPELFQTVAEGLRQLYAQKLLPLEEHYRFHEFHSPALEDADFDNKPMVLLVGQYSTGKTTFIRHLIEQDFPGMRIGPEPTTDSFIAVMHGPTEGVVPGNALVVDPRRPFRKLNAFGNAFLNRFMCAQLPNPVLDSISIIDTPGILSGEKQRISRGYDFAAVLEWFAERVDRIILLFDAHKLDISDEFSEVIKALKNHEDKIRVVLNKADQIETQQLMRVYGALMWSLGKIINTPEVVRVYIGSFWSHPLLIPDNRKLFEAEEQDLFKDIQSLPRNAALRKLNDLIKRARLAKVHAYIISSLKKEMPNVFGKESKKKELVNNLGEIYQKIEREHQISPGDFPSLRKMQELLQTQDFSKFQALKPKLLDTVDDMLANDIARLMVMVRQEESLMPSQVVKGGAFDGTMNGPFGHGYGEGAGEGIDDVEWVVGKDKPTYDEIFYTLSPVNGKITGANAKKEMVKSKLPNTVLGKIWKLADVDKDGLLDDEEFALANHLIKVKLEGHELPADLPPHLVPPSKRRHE"}, "B2": {"name": "MICAL-like protein 1 (Homo sapiens), Q8N3F8 (parent)", "chain": "MAGPRGALLAWCRRQCEGYRGVEIRDLSSSFRDGLAFCAILHRHRPDLLDFDSLSKDNVFENNRLAFEVAEKELGIPALLDPNDMVSMSVPDCLSIMTYVSQYYNHFCSPGQAGVSPPRKGLAPCSPPSVAPTPVEPEDVAQGEELSSGSLSEQGTGQTPSSTCAACQQHVHLVQRYLADGRLYHRHCFRCRRCSSTLLPGAYENGPEEGTFVCAEHCARLGPGTRSGTRPGPFSQPKQQHQQQLAEDAKDVPGGGPSSSAPAGAEADGPKASPEARPQIPTKPRVPGKLQELASPPAGRPTPAPRKASESTTPAPPTPRPRSSLQQENLVEQAGSSSLVNGRLHELPVPKPRGTPKPSEGTPAPRKDPPWITLVQAEPKKKPAPLPPSSSPGPPSQDSRQVENGGTEEVAQPSPTASLESKPYNPFEEEEEDKEEEAPAAPSLATSPALGHPESTPKSLHPWYGITPTSSPKTKKRPAPRAPSASPLALHASRLSHSEPPSATPSPALSVESLSSESASQTAGAELLEPPAVPKSSSEPAVHAPGTPGNPVSLSTNSSLASSGELVEPRVEQMPQASPGLAPRTRGSSGPQPAKPCSGATPTPLLLVGDRSPVPSPGSSSPQLQVKSSCKENPFNRKPSPAASPATKKATKGSKPVRPPAPGHGFPLIKRKVQADQYIPEEDIHGEMDTIERRLDALEHRGVLLEEKLRGGLNEGREDDMLVDWFKLIHEKHLLVRRESELIYVFKQQNLEQRQADVEYELRCLLNKPEKDWTEEDRAREKVLMQELVTLIEQRNAIINCLDEDRQREEEEDKMLEAMIKKKEFQREAEPEGKKKGKFKTMKMLKLLGNKRDAKSKSPRDKS", "partner": "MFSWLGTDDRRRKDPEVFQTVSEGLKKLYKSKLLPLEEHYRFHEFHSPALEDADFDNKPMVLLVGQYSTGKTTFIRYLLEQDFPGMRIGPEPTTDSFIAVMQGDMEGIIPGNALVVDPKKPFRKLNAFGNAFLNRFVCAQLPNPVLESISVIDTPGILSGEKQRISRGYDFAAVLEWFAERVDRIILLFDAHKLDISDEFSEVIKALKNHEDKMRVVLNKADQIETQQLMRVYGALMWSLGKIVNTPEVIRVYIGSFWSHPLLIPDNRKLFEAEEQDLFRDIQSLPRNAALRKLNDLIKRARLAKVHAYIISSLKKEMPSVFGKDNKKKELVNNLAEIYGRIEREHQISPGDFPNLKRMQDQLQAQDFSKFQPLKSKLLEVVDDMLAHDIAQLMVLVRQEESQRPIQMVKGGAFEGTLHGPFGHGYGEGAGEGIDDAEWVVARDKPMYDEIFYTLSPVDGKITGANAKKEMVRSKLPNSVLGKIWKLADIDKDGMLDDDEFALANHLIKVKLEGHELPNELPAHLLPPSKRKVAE"}, "B3": {"name": "Rabankyrin-5 (Homo sapiens), Q9P2R3 (parent)", "chain": "B1 chain", "partner": "B2 partner"}, "B4": {"name": "MICAL-like protein 1 (Homo sapiens), Q8N3F8 (parent)", "chain": "B2 chain", "partner": "B1 partner"}, "B5": {"name": "EH domain-containing protein 3 (Homo sapiens), Q9NZN3 (parent)", "chain": "B2 partner", "partner": "B1 chain"}}, "data": [{"variants_of": "B1", "details": "with ehd1_human EHD1, Q9H4M9", "values": [{"variant": "S419P", "effect of a mutation on the interaction": "disrupting interaction"}]}, {"variants_of": "B2", "details": "with ehd3_human EHD3, Q9NZN3", "values": [{"variant": "E428A;E429A;E430A;E431A;E432A;D433A", "effect of a mutation on the interaction": "disrupting interaction"}]}, {"variants_of": "B3", "details": "with ehd3_human EHD3, Q9NZN3", "values": [{"variant": "Q418K", "effect of a mutation on the interaction": "causing an interaction"}, {"variant": "V420Y", "effect of a mutation on the interaction": "causing an interaction"}, {"variant": "V420A", "effect of a mutation on the interaction": "causing an interaction"}, {"variant": "Q418K;S419P;V420Y", "effect of a mutation on the interaction": "causing an interaction"}]}, {"variants_of": "B4", "details": "with ehd1_human EHD1, Q9H4M9", "values": [{"variant": "E428A;E429A;E430A;E431A;E432A;D433A", "effect of a mutation on the interaction": "disrupting interaction"}, {"variant": "E429A;E430A;E431A;E432A;D433A", "effect of a mutation on the interaction": "decreasing interaction"}]}, {"variants_of": "B5", "details": "with anfy1_human ANKFY1, Q9P2R3", "values": [{"variant": "E520D", "effect of a mutation on the interaction": "causing an interaction"}, {"variant": "N519A", "effect of a mutation on the interaction": "causing an interaction"}]}, {"variants_of": "B5", "details": "with anfy1_human ANKFY1, Q9P2R3", "remark": "another data set of the same source", "values": [{"variant": "N519A;E520D", "effect of a mutation on the interaction": "causing an interaction"}]}]}
